Results from the supplement of paper PMC10567573.

B1: PSD2 (parent)
chain: LTHFSRRYCQCNPDDSTSEDGIHT
B2: ANKRD17 (parent)
chain: EVLRRLTSSVSCALDEAAAALTRM

Variants of: B1
Assay: protein stability index of a GFP-peptide fusion (GPS, HEK-293T) (PSI 1-6); higher = more stable
Details: c terminus: a fixed tail appended
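Note: lentivirally expressed fusions sorted by FACS into six bins by GFP to DsRed ratio, PSI derived from sequencing read proportions per bin multiplied by bin number.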

| Variant | protein stability index |
| --- | --- |
| LTHFSRRYMQCNPDDSTSEDGIHT | 4.16 |
| LTHFSRRYAQCNPDDSTSEDGIHT | 4.23 |
| QTHFSRRYCQCNPDDSTSEDGIHT | 3.53 |
| LTHFSNRYCQCNPDDSTSEDGIHT | 4.12 |
| LTHFSYRYCQCNPDDSTSEDGIHT | 2.74 |
| LTHFSMRYCQCNPDDSTSEDGIHT | 3.29 |
| LTHFSPRYCQCNPDDSTSEDGIHT | 3.9 |
| LTHFSERYCQCNPDDSTSEDGIHT | 4.83 |
| LTHFSWRYCQCNPDDSTSEDGIHT | 2.95 |
| LTHFSRRCCQCNPDDSTSEDGIHT | 3.01 |
| LTHFSRRRCQCNPDDSTSEDGIHT | 3.7 |
| LTHFSRDYCQCNPDDSTSEDGIHT | 4.69 |
| LTHFSRNYCQCNPDDSTSEDGIHT | 3.75 |
| LTHFSRRYCQCNPDDSTSEDGIAT | 3.66 |
| LTHFSRRYCQCNPDDSTSEDGIDT | 3.58 |
| LTHFSRRYCQCNPDDSTSNDGIHT | 2.84 |
| LTHFSRRYCQNNPDDSTSEDGIHT | 4.41 |
| LTHFSRRYCQFNPDDSTSEDGIHT | 3.12 |
| LTHFSRRYCQCNPDCSTSEDGIHT | 2.91 |
| LTHFSRRYCQCNPDDNTSEDGIHT | 3.06 |
| LTHFSRRYCQCNPDDCTSEDGIHT | 2.75 |

| Variant | protein stability index |
| --- | --- |
| LTHFSRRYCQCNPDDWTSEDGIHT | 1.77 |
| LTHFSRRYCQCNPDDSTCEDGIHT | 3.69 |
| LTHFSRRYCQCNIDDSTSEDGIHT | 2.68 |
| LTHFSRRYCQCNTDDSTSEDGIHT | 3.5 |
| LTHFSRRYCYCNPDDSTSEDGIHT | 3.01 |
| LTHFSRRYCKCNPDDSTSEDGIHT | 2.71 |
| LTHFRRRYCQCNPDDSTSEDGIHT | 2.53 |
| LTHFHRRYCQCNPDDSTSEDGIHT | 3.36 |
| LTHFSRRYCQCNPDDSTSEEGIHT | 3.64 |
| LTHFSRRYCQCNPDDSTSEYGIHT | 1.81 |
| LTHFSRRYCQCNPDDSTSEWGIHT | 1.46 |
| LTHFSRRYCQCNPVDSTSEDGIHT | 2 |
| LTHFSRRYCQCYPDDSTSEDGIHT | 2.39 |
| LTHFSRRYCQCNPDDSYSEDGIHT | 2.39 |
| LTHFSRRYCQCNPDDSWSEDGIHT | 2.17 |
| LTHFSRRYCQCNPDDSRSEDGIHT | 2.78 |
| LTHFSRRYCQCNPDDSDSEDGIHT | 4.02 |
| LTGFSRRYCQCNPDDSTSEDGIHT | 2.92 |
| LTHFSRRYCQCNPDDSTSEDWIHT | 1.96 |
| LRHFSRRYCQCNPDDSTSEDGIHT | 2.63 |

Variants of: B2
Assay: as above
Details: c terminus: a fixed tail appended

| Variant | protein stability index |
| --- | --- |
| EVLRRLTSSVSCALDEAAAALTRS | 2.42 |
| EVLRRLTSSVSCALDEAAAALTRQ | 2.2 |
| EVLRRLTSSVSCALDEAAAALTRH | 2.49 |
| EVLRRLTSSVSCALDEAAAALTRL | 2.81 |
| EVLRRLTSSVSCALDEAAAALTRV | 1.07 |
| EVLRRLTSSVSCALDEAAAALTRD | 1.43 |
| EVLRRLTSSVSCALDEAAAALTRI | 2.08 |
| EVLRRLTSSVSCALDEAAAALTRR | 2.72 |
| EVLRRLTSSVSCALDEAAAALTRF | 2.44 |
| EVLRRLTSSVSCALDEAAAALTRT | 3.53 |
| EVLRRLTSSVSCALDEAAAALTRW | 3.27 |
| EVLRRLTSSVSCALDEAAAALTRC | 2.33 |
| EVLRRLTSSVSCALDEAAAALTRY | 1.43 |
| EVLRRLTSSVSCALDEAAAALTRN | 1.65 |
| EVLRRLTSSVSCALDEAAAALTAM | 2.91 |
| EVLRRLTSSVSCALDEAAAALTKM | 1.21 |
| EVLRRLTSSVSCALDEAAAALTDM | 2.8 |
| EVLRRLTSSVSCALDEAAAALTGM | 2.35 |
| EVLRRLTSSVSCALDEAAAALTFM | 4.05 |
| EVLRRLTSSVSCALDEAAAALTPM | 2.15 |
| EVLRRLTSSVSCALDEAAAALTQM | 1.74 |
| EVLRRLTSSVSCALDEAAAALTEM | 2.64 |
| EVLRRLTSSVSCALDEAAAALTIM | 1.92 |
| EVLRRLTSSVSCALDEAAAALTNM | 1.35 |
| EVLRRLTSSVSCALDEAAAALTSM | 1.93 |
| EVLRRLTSSVSCALDEAAAALTMM | 1.59 |
| EVLRRLTSSVSCALDEAAAALTVM | 1.02 |

| Variant | protein stability index |
| --- | --- |
| EVLRRLTSSVSCALDEAAAALTHM | 1.95 |
| EVLRRLTSSVSCALDEAAAALTWM | 3.5 |
| EVLRRLTSSVSCALDEAAAAVTRM | 2.04 |
| EVLRRLTSSVSCALDEAAAAMTRM | 1.5 |
| EVLRRLTSSVSCALDEAAAARTRM | 5.02 |
| EVLRRLTSSVSCALDEAAAANTRM | 3.47 |
| EVLRRLTSSVSCALDEAAAAWTRM | 1.6 |
| EVLRRLTSSVSCALDEAAAAFTRM | 1.65 |
| EVLRRLTSSVSCALDEAAAAHTRM | 1.89 |
| EVLRRLTSSVSCALDEAAAAITRM | 1.93 |
| EVLRRLTSSVSCALDEAAAALRRM | 1.31 |
| EVLRRLTSSVSCALDEAAAALPRM | 2.33 |
| EVLRRLTSSVSCALDEAAAALVRM | 1.24 |
| EVLRRLTSSVSCALDEAAAALHRM | 3.03 |
| EVLRRLTSSVSCALDEAAAALIRM | 2.36 |
| EVLRRLTSSVSCALDEAAAALFRM | 2.21 |
| EVLRRLTSSVSCALDEAAAALWRM | 1.46 |
| EVLRRLTSSVSCALDEAAAALCRM | 2.1 |
| EVLRRLTSSVSCALDEAAAALKRM | 1.86 |
| EVLRRLTSSVSCALDEAAAALNRM | 1.93 |
| EVLRRLTSSVSCALDEAAAALMRM | 2.39 |
| EVLRRLTSSVSCALDEAAAALARM | 1.94 |
| EVLRRLTSSVSCALDEAAAALQRM | 3 |
| EVLRRLTSSVSCALDEAAAALDRM | 2.22 |
| EVLRRLTSSVSCALDEAAAALYRM | 1.85 |
| EVLRRLTSSVSCALDEAAAALERM | 2.06 |
